Assays:
PC12 cells [1] = assay: Adhesion and inhibition assay, colorimetric; format: cell-based, rat; conditions: data not shown
Protocol: (§1) Adhesion assays were performed as described in (à compléter) with some modifications. Coating with the various molecules, at the indicated concentrations in 0.5 ml PBS, was performed in plastic 24-well multidishes (Nunclon™) at 37° C. (1 h or overnight).The cells were then washed three times with PBS, coating blocked with 1% heat-inactivated BSA (à compléter) for at least 1 h at 37° C., followed by three PBS washes, before addition of the cells (10^6 cells per ml in serum-free medium containing 0.1% heat-inactivated BSA). In standard experiments, purified KAL was applied at 3 μg/ml. Other substrates were used as control, fibronectin ([…]) and poly-L-lysine (100 μg/ml).
(§2) Cells were incubated for 30 min to 1 h on coated wells. Medium was then aspirated and unbound cells removed by one wash with PBS. The adherent cells were fixed with […] paraformaldehyde (PFA) in PBS and stained with 0.1% crystal violet. Quantification of the attached cells was performed using a colorimetric method (à compléter). Data are expressed as the percentage of adherent cells on each tested substrate with reference to poly-L-lysine. Assays in triplicate were repeated in three independent experiments.
Cells were incubated for 5 min at room temperature in HBSS containing 5 mM EDTA, washed once with HBSS and preincubated for 1 h at 4° C. in HBSS containing 0.1% BSA in the absence or in the presence of Ca^++ and/or Mg^++ prior plating.
Heparin, heparan sulfate or chondroitin sulfate (up to 1 mg/ml in PBS) was added in KAL-coated-BSA-saturated wells, and allowed to interact for 2 h at 37° C. After three washings with PBS, CHO-K1or PC12 cells were plated, and incubated as usual.
A 32 aminoacid peptide (32R1-FIG. 24) was synthesized (Syntiem laboratory). Control peptides were C17 (NH2CSLVPTKKKRRKTTDGF-COON) (SEQ ID NO:7) derived from the second fibronectin type III repeat of human KAL and C 16V (NHzCGSYANNNRYGRDPPTSV-000H), (SEQ ID NO:8) derived from the EYA1 protein (a completer). The peptides, at various concentrations (10 to 30 μg/ml), were directly adsorbed on polystyrene microtiter wells (Immulon 4, Nunc). […]

CHO-K1 cells = assay: Adhesion and inhibition assay, colorimetric; format: cell-based, Chinese Hamster; conditions: KAL-coated wells preincubated with 100 μg/ml
Protocol: as §1, §2
Heparin, heparan sulfate or chondroitin sulfate (up to 1 mg/ml in PBS) was added in KAL-coated-BSA-saturated wells, and allowed to interact for 2 h at 37° C. […]

PC12 cells [2] = assay: Adhesion assay on coated wells, cell counter; includes antibody, heparin and R1-FNIII inhibition; format: cell-based, rat
Protocol: (§3) 24-well microtiter plates were coated at 37 °C overnight with 20 μg/ml of laminin, 5μg/ml of KAL in PBS, pH=7.4. The plates were washed twice with PBS and non specific sites were blocked by the addition of 1% BSA in PBS for 1 hour at 37° C. Wells were washed twice with PBS. Cerebellar neurons or PC12 cells were resuspended in DMEM to a final concentration of 10^6 cells/ml. 500 μl of this suspension was added to each coated well. Cells were also added to control wells that had been coated with BSA alone. Plates were incubated at 37° C. for 90 min in a 5% CO2 humidified atmosphere. The wells were washed gently twice with 0.5 ml PBS. To remove adherent cells from the wells, 0.5 ml of 0.05% trypsin-EDTA were added to each well. After 10 min at 37 °C, the 0.5 ml of trypsin-EDTA containing the detached cells were removed and the number of cells was determined by using a cell counter (Coutler, ZM equipped with a Coultronic 256 channelizer).
(§4) Each cell adhesion assay was carried out in triplicate. The ration of adherent cells with respect to the total number of cell ×100 was determined as the % of cell adhesion.
For inhibition of cell adhesion, 5 ×10^5 PC12 cells were deposited on areas previously coated with KAL and with antiserum directed against the human KAL protein at different concentrations and treated as described for adhesion assay. […]

[3] = tested on: olfactory neurons (line 24); assay: Adhesion and peptide/serum inhibition assay, colorimetric; format: cell-based, rat; conditions: for percentage of olfactory neurons (line 24) adherent on substrate: substrate coated to microtiter wells
Protocol: as §1, §2
A 32 aminoacid peptide (32R1-FIG. 24) was synthesized (Syntiem laboratory). Control peptides were C17 (NH2CSLVPTKKKRRKTTDGF-COON) (SEQ ID NO:7) derived from the second fibronectin type III repeat of human KAL and C 16V (NHzCGSYANNNRYGRDPPTSV-000H), (SEQ ID NO:8) derived from the EYA1 protein (a completer). The peptides, at various concentrations (10 to 30 μg/ml), were directly adsorbed on polystyrene microtiter wells (Immulon 4, Nunc). Adhesion assays were performed as described above.
In peptide inhibition assays, cells were preincubated with the peptides at different concentrations (10 to 100 μg/ml) for 1 h at 4° C., then plated to KAL-coated wells, and incubated for a further 30 min period of time.

[4] = tested on: olfactory neurons (line 24); assay: Spreading and neurite growth on coated substrates; format: cell-based, rat; conditions: for mean neurite length per olfactory neuron: mean ± SEM
Protocol: FIG. 28: Mean neurite length on the different substrates after one hour, two hours and eight hours in vitro. Mean value±SEM. More than 100 neurons were analyzed in each experimental condition.
Cells, in serum-free medium containing 0.1% heat inactivated BSA were seeded on KAL- or laminin-coated wells, and maintained for 20 min to 22 h at 37° C. Adherent cells were fixed, stained with toluidine blue, and photographied with an inverted microscope.

CHO-606 cells = assay: Adhesion assay with mutant cells expressing undersulfated HS; format: cell-based, Chinese Hamster; conditions: KAL substrate, versus wild-type CHO-K1
Source text: (§5) The parental CHO cell line and the human KAL-transfected CHO clones (1-1 and 2-3) were cultivated in DMEM medium supplemented with 8% fetal calf serum (PAA, Jacques Boy, France). • Cells from the olfactory neuronal line 13.S.1.24 also named “line 24” (kindly provided by Dr. Astic, Lyon, France) were cultivated in DMEM supplemented with 10% calf serum. Porcine kidney epithelial cells (LLCPK) ATCC NO CRL1392 • Mouse GnRH neurons (GT1, subclone 1) • Wild-type CHO-K1, mutant CHO-K1-677 (Lidholt K. et al., 1992) and CHO-K1-606 (Bame et al., 1994) cell lines were provided to us by Dr. Esko, the mutant CHO-K1-745 (Esko et al., 1987) cell line was obtained from ATCC. The CHO-K1-677 cells display undetectable levels of heparan-sulfate (HS), but synthesize chondroitin sulfate (CS) at a level 3 times higher than wild-type CHO-K1 cells. The CHO-K1-606 cells express HS and CS at levels similar to those observed in wild-type, but HS is 2 to 3 times less sulfated than in wild-type cells. The CHO-K1-745 cells, deficient in xylosyltransferase, synthesize neither HS nor CS (Esko et al., 1987). […]
(§6) Cells were incubated for 30 min to 1 h on coated wells. […] Quantification of the attached cells was performed using a colorimetric method (à compléter). Data are expressed as the percentage of adherent cells on each tested substrate with reference to poly-L-lysine. […]

[5] = tested on: P5 cerebellar granule cells; assay: Adhesion assay, colorimetric, relative to poly-L-lysine; format: cell-based, mouse; conditions: 1 hour
Protocol: as §1, §2

CHO-745 cells = assay: Adhesion assay with HS- and CS-deficient mutant cells; format: cell-based, Chinese Hamster; conditions: KAL substrate
Source text: as §5, §6

cerebellar granule cells = assay: Adhesion assay on coated wells, adherent cells counted with a cell counter (% of total cells); format: cell-based, mouse; conditions: coated dishes, 90 minute incubation
Protocol: Cerebellar cell cultures. Dissociated cell cultures were obtained from Swiss mouse cerebella on postnatal day 5. At this age, granule cells account for up to 90% of the total cell population, glial cells included. Cells were dissociated by combined trituration and trypsinisation, and grown in chemically defined medium DMEM/Ham's F12 (3 vol/1 vol) containing 0.2 mM glutamine, 5 μg/ml insulin, 100 μg/ml tranferrin, 20 nM progesterone, […] purrescine, 30 nM selenium 100 U/ml penicillin and 0.1 mg/ml streptomycin.
as §3, with “Cells were also added to control wells that had been coated with BSA alone. Plates were incubated at 37° C. for 90 min in a 5% CO2 humidified atmosphere. The wells were washed gently twice with 0.5 ml PBS. To remove adherent cells from the wells, 0.5 ml of 0.05% trypsin-EDTA were added to each well.” left out
as §4

CHO-677 cells = assay: Adhesion assay with HS-deficient mutant cells; format: cell-based, Chinese Hamster; conditions: KAL substrate
Source text: The parental CHO cell line and the human KAL-transfected CHO clones (1-1 and 2-3) were cultivated in DMEM medium supplemented with 8% fetal calf serum (PAA, Jacques Boy, France). • Cells from the olfactory neuronal line 13.S.1.24 also named “line 24” (kindly provided by Dr. Astic, Lyon, France) were cultivated in DMEM supplemented with 10% calf serum. Porcine kidney epithelial cells (LLCPK) ATCC NO CRL1392 • Mouse GnRH neurons (GT1, subclone 1) • Wild-type CHO-K1, mutant CHO-K1-677 (Lidholt K. et al., 1992) and CHO-K1-606 (Bame et al., 1994) cell lines were provided to us by Dr. Esko, the mutant CHO-K1-745 (Esko et al., 1987) cell line was obtained from ATCC. The CHO-K1-677 cells display undetectable levels of heparan-sulfate (HS), but synthesize chondroitin sulfate (CS) at a level 3 times higher than wild-type CHO-K1 cells. The CHO-K1-606 cells express HS and CS at levels similar to those observed in wild-type, but HS is 2 to 3 times less sulfated than in wild-type cells. The CHO-K1-745 cells, deficient in xylosyltransferase, synthesize neither HS nor CS (Esko et al., 1987). Wild-type and mutant CHO-K1cells were maintained in Ham F12 medium supplemented with 10% fetal calf serum.
Adhesion assays were performed as described in (à compléter) with some modifications. Coating with the various molecules, at the indicated concentrations in 0.5 ml PBS, was performed in plastic 24-well multidishes (Nunclon™) at 37° C. (1 h or overnight).The cells were then washed three times with PBS, coating blocked with 1% heat-inactivated BSA (à compléter) for at least 1 h at 37° C., followed by three PBS washes, before addition of the cells (10^6 cells per ml in serum-free medium containing 0.1% heat-inactivated BSA). In standard experiments, purified KAL was applied at 3 μg/ml. […]
as §6

[6] = tested on: cerebellar granule neurons (aggregates); assay: Survival and neurite outgrowth of granule cell aggregates on coated substrates; format: cell-based, mouse; conditions: 48 hours culture
Protocol: Reaggregate cultures of cerebellar neurons from mice on postnatal day-5 were prepared according to Gao et al. (1995). After dissociation, cells were further purified by preplating on a poly-L-Lysine treated (25 μg/ml) substrate for 30 min and plated in uncoated 96-well dishes (5 10^5 cells/well) in BME plus 10% horse serum, 5% fetal calf serum, 9 mg/ml glucose, 0.3 mg/ml glutamine, 50 U/ml penicillin and 0.1 mg/ml streptomycin. Aggregates (100-200 cells) were harvested after 24 h to be used in coculture experiments.
prepared as described in the Materials and Methods section. Cerebellar granule neurons were seeded on surfaces that had been coated with KAL protein. Polylysine and bovine serum albumin (BSA) were used as positive and negative controls respectively.

heparin
inhibition of PC12 cell adhesion on KAL (PC12 cells [1]; HS or CS pretreatment of KAL-coated wells): 50%
inhibition of CHO-K1 cell adhesion on KAL (CHO-K1 cells): approximately 50%
heparin concentration from which adhesion of PC12 cells to KAL protein was inhibited (PC12 cells [2]; heparin present in KAL-coated wells): ≥ 0.03 mg/mL

NH2CSLVPTKKKRRKTTDGF-COON [17R2, reference compound]
effect of preincubation with peptide on adhesion to KAL ([3]; 50 μM): had no effect
percentage of olfactory neurons (line 24) adherent on substrate [3]: no adhesion

fibronectin [reference compound]
mean neurite length per olfactory neuron ([4]; eight hours after plating): 63 (±2,5) μm
mean neurite length per olfactory neuron ([4]; one hour on substrate): 46 (±4) μm

O=C(O)CN(CCN(CC(=O)O)CC(=O)O)CC(=O)O [EDTA]
effect of chelating Ca++ and Mg++ on adhesion of PC12 cells to KAL (PC12 cells [1]; cells incubated with EDTA for 5 minutes prior plating): did not modified the amount of adhering cells

B1: KAL protein: recombinant human KAL gene product (680 aa, SwissProt P23352) purified from transfected CHO cells CHKAL2-3/d11 (protein)
chain: AGPGAAAARRLDESLSAGSVQRAPCASRCLSLQITRISAFFQHFQNNGSLVWCQNHKQCSKCLEPCKESGDLRKHQCQSFCEPLFPKKSYECLTSCEFLKYILLVKQGDCPAPEKASGFAAACVESCEVDNECSGVKKCCSNGCGHTCQVPKTLYKGVPLKPRKELRFTELQSGQLEVKWSSKFNISIEPVIYVVQRRWNYGIHPSEDDATHWQTVAQTTDERVQLTDIRPSRWYQFRVAAVNVHGTRGFTAPSKHFRSSKDPSAPPAPANLRLANSTVNSDGSVTVTIVWDLPEEPDIPVHHYKVFWSWMVSSKSLVPTKKKRRKTTDGFQNSVILEKLQPDCDYVVELQAITYWGQTRLKSAKVSLHFTSTHATNNKEQLVKTRKGGIQTQLPFQRRRPTRPLEVGAPFYQDGQLQVKVYWKKTEDPTVNRYHVRWFPEACAHNRTTGSEASSGMTHENYIILQDLSFSCKYKVTVQPIRPKSHSKAEAVFFTTPPCSALKGKSHKPIGCLGEAGHVLSKVLAKPENLSASFIVQDVNITGHFSWKMAKANLYQPMTGFQVTWAEVTTESRQNSLPNSIISQSQILPSDHYVLTVPNLRPSTLYRLEVQVLTPGGEGPATIKTFRTPELPPSSAHRHLKHRHPHHYKPSPERY
adhesion of CHO-606 cells to the substrate (CHO-606 cells): comparable to that found in wild-type
percentage of olfactory neurons (line 24) adherent on substrate [3]: 70%
percentage of cell adhesion relative to PLL substrate (set as 100%) [5]: 80%
adhesion of CHO-745 cells on the substrate (CHO-745 cells): No adhesion
percentage of adherent cells relative to the total number of cells deposited (cerebellar granule cells): 80%
stimulation of neurite elongation by comparison with fibronectin and peptide 32R1 ([4]; eight hours after plating): 30%
mean neurite length per olfactory neuron ([4]; eight hours after plating): 81 (±5) μm
mean neurite length per olfactory neuron ([4]; one hour on substrate): 66 (±2,5) μm
decrease of adhesion of CHO-677 cells compared to wild-type CHO-K1 cells (CHO-677 cells): about 70%
survival and neurite outgrowth of granule cell aggregates on coated surface [6]: large halo of neuritic processes
concentration of KAL protein giving maximum percentage of cell adhesion (PC12 cells [2]; coating concentration, results not shown, cell type not specified): 5 µg/mL

From US20070037736A1, “Therapeutic composition comprising the KAL protein and use of the KAL protein for the treatment of retinal, renal, neuronal and neural injury” (INSTITUT PASTEUR, priority 1997, published 2007)
